Test results published in paper PMC5682392, “Site-Directed Mutagenesis Study Revealed Three Important Residues in Hc-DAF-22, a Key Enzyme Regulating Diapause of Haemonchus contortus” (Frontiers in Microbiology, 2017).

B1: Hc-DAF-22 (Haemonchus contortus) (protein)
chain: MGKSKVYVIGVGMTKFCKPGSRDWDYPDMVKEAVNMALDDCSLKYTDIQQATVGYLFGGTCCGQRALYELGFTGIPIFNVNNACASGSSGLYLCKQIIESGNSDVVLACGFEKMATGSLDTQAGNSDGRALSVDNHIQVMSDTYGLFPAPITAQMFANAGKEHMEKYGTKREHFAKIAWKNHLHSVHNPNSQFTKEFSLDQVMNARKIYDFMGLLECSPTSDGSAAAVLCSERFLEQNPRLKPQAVEIVGLELGTDQPSVFKENSNIKMIGFDMIKKISSDLYRNTGLCPNDVQVIELHDCFAPNELITYEALGLCDVGKGGTIVDRGDNTYGGKWVINPSGGSISKGHPIGATGVAQVVELSNQLRGKCGKRQVPNCKIAMQHNIGIGGAGVVGLYRLAYPSSTCPPTTKSSPTMSAFKSDVIFEEIKQRINEEKELVKKIATSFRIIITGEDGTVKKWTIDAKSDTPYVGDDDRKVEVEITIKDSDFMNIAAGKLKADQAFMQGKMKLKGNIAKSMKLKTLLDPKMLKAKI

Key:
[1] = system: CC(=O)CC(=O)SCCNC(=O)CCNC(=O)[C@H](O)C(C)(C)COP(=O)(O)OP(=O)(O)OC[C@H]1O[C@@H](n2cnc3c(N)ncnc32)[C@H](O)[C@@H]1OP(=O)(O)O; experiment: purified protein; assay type: biochemical, Haemonchus contortus; conditions: 60 μM CoA co-substrate, 20 mM MgCl2, 50 mM Tris-Cl pH 8.1 (pH 8.0 also stated), 37°C, varied substrate not given, taken as AcAc-CoA
purified protein = substrate: CC(=O)CC(=O)SCCNC(=O)CCNC(=O)[C@H](O)C(C)(C)COP(=O)(O)OP(=O)(O)OC[C@H]1O[C@@H](n2cnc3c(N)ncnc32)[C@H](O)[C@@H]1OP(=O)(O)O; experiment: purified protein; assay type: biochemical, Haemonchus contortus; conditions: 60 μM CoA co-substrate, 20 mM MgCl2, 50 mM Tris-Cl pH 8.1 (pH 8.0 also stated), 37°C, varied substrate not given, taken as AcAc-CoA, text prints 33.765

Molecule	Km [1] [µM]	Vmax [1] [µM/min]	Km (purified protein) [µM]	Vmax (purified protein) [µM/min]
Hc-DAF-22 (Haemonchus contortus; C84S)	51.25	0.693	–	–
Hc-DAF-22 (Haemonchus contortus; H349A)	78.50	0.765	–	–
Hc-DAF-22 (Haemonchus contortus; H299A)	79.85	1.39	–	–
B1	–	–	33.76	1.78
